T1: mouse SIRPα D1-Fc (mouse, UniProt P97797 32-150, limits assumed)
T1 construct: domain: D1
T1 sequence (looked up): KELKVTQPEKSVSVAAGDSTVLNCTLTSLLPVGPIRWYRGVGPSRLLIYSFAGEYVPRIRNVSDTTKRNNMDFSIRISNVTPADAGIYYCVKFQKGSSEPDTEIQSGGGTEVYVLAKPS

T2: mouse SIRPα on cells (mouse, UniProt P97797 32-513)
T2 construct: whole, on cells
T2 sequence (looked up): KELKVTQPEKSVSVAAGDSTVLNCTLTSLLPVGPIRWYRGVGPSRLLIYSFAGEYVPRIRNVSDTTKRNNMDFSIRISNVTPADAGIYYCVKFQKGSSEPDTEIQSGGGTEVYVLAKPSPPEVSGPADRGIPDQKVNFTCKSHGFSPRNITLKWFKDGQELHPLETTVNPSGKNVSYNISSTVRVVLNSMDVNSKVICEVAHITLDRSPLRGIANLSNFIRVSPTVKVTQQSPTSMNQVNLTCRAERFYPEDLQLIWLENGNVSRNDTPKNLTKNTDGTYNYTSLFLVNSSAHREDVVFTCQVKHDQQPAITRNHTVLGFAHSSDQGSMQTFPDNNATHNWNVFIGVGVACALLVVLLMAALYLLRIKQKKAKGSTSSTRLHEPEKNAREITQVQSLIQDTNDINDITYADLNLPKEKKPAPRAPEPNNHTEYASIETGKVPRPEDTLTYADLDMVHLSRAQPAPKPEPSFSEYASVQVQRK

T3: mouse SIRPβ1 on CHO cells (mouse)
T3 construct: Whole entry
T3 chain: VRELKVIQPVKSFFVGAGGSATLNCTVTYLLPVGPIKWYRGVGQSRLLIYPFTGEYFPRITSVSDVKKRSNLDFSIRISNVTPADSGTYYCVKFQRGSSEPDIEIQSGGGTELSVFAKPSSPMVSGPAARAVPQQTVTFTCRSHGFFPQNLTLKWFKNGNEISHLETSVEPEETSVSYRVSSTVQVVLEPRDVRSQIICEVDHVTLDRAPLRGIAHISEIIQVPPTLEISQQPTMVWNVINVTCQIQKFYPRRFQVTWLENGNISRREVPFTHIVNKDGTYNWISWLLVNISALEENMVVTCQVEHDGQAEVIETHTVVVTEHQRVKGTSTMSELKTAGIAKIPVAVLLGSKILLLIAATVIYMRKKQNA


Columns and labels:
[1] = molecular target: T4, human SIRPβ1 domain 1 (D1) Fc fusion (human, UniProt O00241 30-148); assay: Octet, IgG avid
T4 construct: Made in HEK293/T cells with a heterologous signal peptide; also called Human SIRPβ1 D1-Fc; Human SIRPβ1-Fc; not shown: C-terminal human IgG1 Fc

[2] = molecular target: T5, human SIRPα domain 1 (D1) Fc fusion (human, UniProt P78324 32-149); assay: Octet
T5 construct: also called human SIRPα D1-Fc; Human SIRPα Fc; not shown: C-terminal human IgG1 Fc

mouse SIRPα D1-Fc = molecular target: T1, mouse SIRPα D1-Fc; assay: Octet
mouse SIRPα on cells [3] = molecular target: T2, mouse SIRPα on cells; assay: flow cytometry;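 as to FOB: antibodies tested at 1 µg/ml for 30 min on ice against receptor-expressing cells, detected with a PE-labelled secondary antibody, read as mean fluorescence intensity relative to background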
human SIRPα on cells [4] = molecular target: T6, human SIRPα on cells (human, UniProt P78324 31-504); assay: flow cytometry;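 as to FOB: antibodies tested at 1 µg/ml for 30 min on ice against receptor-expressing cells, detected with a PE-labelled secondary antibody, read as mean fluorescence intensity relative to background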
T6 construct: Whole entry

[5] = molecular target: T3, mouse SIRPβ1 on CHO cells; assay: flow cytometry;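 as to FOB: antibodies tested at 1 µg/ml for 30 min on ice against receptor-expressing cells, detected with a PE-labelled secondary antibody, read as mean fluorescence intensity relative to background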
mouse SIRPα on cells [6] = molecular target: T2, mouse SIRPα on cells; assay: flow cytometry; remark: listed apart in the source;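 as to FOB: antibodies tested at 1 µg/ml for 30 min on ice against receptor-expressing cells, detected with a PE-labelled secondary antibody, read as mean fluorescence intensity relative to background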
[7] = molecular target: T7, human SIRPβ1 isoform 1 on cells (human, UniProt O00241 30-398); assay: flow cytometry
T7 construct: On CHO cells (low level), on BWZ/BW5147.G.1.4 cells (reporter cells co-express human DAP12) or on primary human myeloid cells; also called huSIRPβ1; BWZ-huSIRPβ1

human SIRPα on cells [8] = molecular target: T6, human SIRPα on cells; assay: flow cytometry; remark: listed apart in the source
[9] = molecular target: T3, mouse SIRPβ1 on CHO cells; assay: flow cytometry

T7 sequence (O00241 30-398): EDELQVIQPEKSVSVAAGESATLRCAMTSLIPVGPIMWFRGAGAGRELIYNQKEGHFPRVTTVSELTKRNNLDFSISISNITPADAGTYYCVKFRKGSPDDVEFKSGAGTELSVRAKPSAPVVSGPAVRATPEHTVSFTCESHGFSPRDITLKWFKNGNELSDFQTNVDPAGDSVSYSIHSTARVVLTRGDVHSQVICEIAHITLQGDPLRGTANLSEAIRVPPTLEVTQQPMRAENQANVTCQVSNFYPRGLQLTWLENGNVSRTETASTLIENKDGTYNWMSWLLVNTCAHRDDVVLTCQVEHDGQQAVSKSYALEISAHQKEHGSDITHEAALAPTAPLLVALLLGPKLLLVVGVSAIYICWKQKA
T4 sequence (O00241 30-148 limits assumed): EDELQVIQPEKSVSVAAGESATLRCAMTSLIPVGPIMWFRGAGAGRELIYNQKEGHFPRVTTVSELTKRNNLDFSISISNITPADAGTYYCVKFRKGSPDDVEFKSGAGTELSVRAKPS

Row | Kd [1] [nM] | binding result [2] | binding result (mouse SIRPα D1-Fc) | binding result (mouse SIRPα on cells [3]) | binding result (human SIRPα on cells [4]) | binding result [5] | FOB (mouse SIRPα on cells [6]) [fold over background] | FOB [7] [fold over background] | FOB (human SIRPα on cells [8]) [fold over background] | FOB [9] [fold over background] | Binder
1 | 9.23 | no binding (tested: 100 nM) | no binding (tested: 100 nM) | no binding (tested: 1 ug/ml) | no binding (tested: 1 ug/ml) | no binding (tested: 1 ug/ml) | 1.4 | 1.4 | 2.2 | 1.3 | SB-33 (antibody, V domains shown, IgG) VH: EVQLVESGGGLVQPGGSLRLSCAASGFTVSSNYMSWVRQAPGKGLEWVSVIYSGGSTYYADSVKGRFTISRDNSKNTLYLQMNSLRAEDTAVYYCARGQYTGSLDVWGQGTMVTVSS VL: not shown
2 | 3.69 | no binding (tested: 100 nM) | no binding (tested: 100 nM) | no binding (tested: 1 ug/ml) | no binding (tested: 1 ug/ml) | no binding (tested: 1 ug/ml) | 0.9 | 6.3 | 2.3 | 1.2 | SB-11 (antibody, V domains shown, IgG) VH: QVQLVQSGAEVKKPGSSVKVSCKASGGTFSNYAISWVRQAPGQGLEWMGGIIPIFGTANYAQKFQGRVTITADESTSTAYMELSSLRSEDTAVYYCARPVDSSSYSLGYYYGMDVWGKGTTVTVSS VL: not shown
3 | 3.66 | no binding (tested: 100 nM) | no binding (tested: 100 nM) | no binding (tested: 1 ug/ml) | no binding (tested: 1 ug/ml) | no binding (tested: 1 ug/ml) | 0.8 | 1.8 | 2.1 | 1 | SB-9 (antibody, V domains shown, IgG) VH: QVQLVQSGAEVKKPGASVKVSCKASGYTFTSYGIHWVRQAPGQGLEWMGWISAYNGNTNYAQKLQGRVTMTTDTSTSTAYMELRSLRSDDTAVYYCARDGLHYGDYIVYYGMDVWGQGTTVTVSS VL: not shown
4 | 5.59 | no binding (tested: 100 nM) | no binding (tested: 100 nM) | no binding (tested: 1 ug/ml) | no binding (tested: 1 ug/ml) | no binding (tested: 1 ug/ml) | 1 | 4.1 | 2.1 | 1.2 | SB-28 (antibody, V domains shown, IgG) VH: QLQLQESGPGLVKPSETLSLTCTVSGGSISSSSYYWGWIRQPPGKGLEWIGSISYSGSTYYNPSLKSRVTISVDTSKNQFSLKLSSVTAADTAVYYCARDPRDYSSGSSGGGWGYFDLWGRGTLVTVSS VL: EIVLTQSPGTLSLSPGERATLSCRASQSVSSSYLAWYQQKPGQAPRLLIYGASSRATGIPDRFSGSGSGTDFTLTISRLEPEDFAVYYCQQDGNFPLTFGGGTKVEIK
5 | 10.7 | no binding (tested: 100 nM) | no binding (tested: 100 nM) | no binding (tested: 1 ug/ml) | no binding (tested: 1 ug/ml) | no binding (tested: 1 ug/ml) | 0.9 | 1.8 | 1.9 | 1.2 | SB-29 (antibody, V domains shown, IgG) VH: QVQLVQSGAEVKKPGSSVKVSCKASGGTFSSYAISWVRQAPGQGLEWMGSIIPIFGTANYAQKFQGRVTITADESTSTAYMELSSLRSEDTAVYYCARAPYGSSSGYGYFDLWGRGTLVTVSS VL: not shown
6 | 5.86 | no binding (tested: 100 nM) | no binding (tested: 100 nM) | no binding (tested: 1 ug/ml) | no binding (tested: 1 ug/ml) | no binding (tested: 1 ug/ml) | 1.2 | 1.9 | 2 | 1.3 | SB-21 (antibody, V domains shown, IgG) VH: QVQLVQSGAEVKKPGASVKVSCKASGYTFTSNGISWVRQAPGQGLEWMGWISAYNGNTNYAQKLQGRVTMTTDTSTSTAYMELRSLRSDDTAVYYCARVGNMDQEYFDLWGRGTLVTVSS VL: not shown
7 | 3.45 | no binding (tested: 100 nM) | no binding (tested: 100 nM) | no binding (tested: 1 ug/ml) | no binding (tested: 1 ug/ml) | no binding (tested: 1 ug/ml) | 1.4 | 8 | 2.2 | 1.3 | SB-15 (antibody, V domains shown, IgG) VH: QLQLQESGPGLVKPSETLSLTCTVSGGSISSNSYYWGWIRQPPGKGLEWIGSIYYSGSTYYNPSLKSRVTISVDTSKNQFSLKLSSVTAADTAVYYCAREVGAPPSYPFDIWGQGTMVTVSS VL: not shown

Continued, binder first:

Row | Binder | Kd [1] [nM] | binding result [2] | binding result (mouse SIRPα D1-Fc) | binding result (mouse SIRPα on cells [3]) | binding result (human SIRPα on cells [4]) | binding result [5] | FOB (mouse SIRPα on cells [6]) [fold over background] | FOB [7] [fold over background] | FOB (human SIRPα on cells [8]) [fold over background] | FOB [9] [fold over background]
8 | SB-26 (antibody, V domains shown, IgG) VH: QVQLVQSGAEVKKPGSSVKVSCKASGGTFSSYAISWVRQAPGQGLEWMGGIIPIFGTANYAQKFQGRVTITADESTSTAYMELSSLRSEDTAVYYCARDGSAGRQEHGMDVWGQGTTVTVSS VL: not shown | 6.17 | no binding (tested: 100 nM) | no binding (tested: 100 nM) | no binding (tested: 1 ug/ml) | no binding (tested: 1 ug/ml) | no binding (tested: 1 ug/ml) | 1.2 | 2 | 2.1 | 1.3
9 | SB-19 (antibody, V domains shown, IgG) VH: QVQLVQSGAEVKKPGSSVKVSCKASGGTFSSYAISWVRQAPGQGLEWMGGIIPIFGTANYAQKFQGRVTITADESTSTAYMELSSLRSEDTAVYYCARDGGGGYAYEYFQHWGQGTLVTVSS VL: not shown | 7.41 | no binding (tested: 100 nM) | no binding (tested: 100 nM) | no binding (tested: 1 ug/ml) | no binding (tested: 1 ug/ml) | no binding (tested: 1 ug/ml) | 0.9 | 1.8 | 2.2 | 1.3
10 | SB-17 (antibody, V domains shown, IgG) VH: QVQLVQSGAEVKKPGASVKVSCKASGYTFTSYGISWVRQAPGQGLEWMGWISAYNGNTNYAQKLQGRVTMTTDTSTSTAYMELRSLRSDDTAVYYCARGPLLYGDYHVRYGMDVWGQGTTVTVSS VL: not shown | 3.32 | no binding (tested: 100 nM) | no binding (tested: 100 nM) | no binding (tested: 1 ug/ml) | no binding (tested: 1 ug/ml) | no binding (tested: 1 ug/ml) | 1.6 | 2.8 | 2.5 | 1.3
11 | SB-31 (antibody, V domains shown, IgG) VH: QVQLVQSGAEVKKPGASVKVSCKASGYTFTSYYMHWVRQAPGQGLEWMGIINPGGGSTSYAQKFQGRVTMTRDTSTSTVYMELSSLRSEDTAVYYCAREGLYSSGWYIDVWGQGTLVTVSS VL: DIQMTQSPSSVSASVGDRVTITCRASQGISSWLAWYQQKPGKAPKLLIYAASSLQSGVPSRFSGSGSGTDFTLTISSLQPEDFATYYCQQAVSHPFTFGGGTKVEIK | 3.75 | no binding (tested: 100 nM) | no binding (tested: 100 nM) | no binding (tested: 1 ug/ml) | no binding (tested: 1 ug/ml) | no binding (tested: 1 ug/ml) | 1 | 3.1 | 1.8 | 1.4
